Earlier results on one substance are cited in publication PMC4799752.

Usually Kd stands for the free concentration of one partner at which half of the binding sites on the other are occupied at equilibrium, for simple one-to-one binding.

This series concerns the target transferrin receptor 2 (Homo sapiens) (UniProt Q9UP52).
Sequence of UniProt Q9UP52 (Q9UP52 whole entry): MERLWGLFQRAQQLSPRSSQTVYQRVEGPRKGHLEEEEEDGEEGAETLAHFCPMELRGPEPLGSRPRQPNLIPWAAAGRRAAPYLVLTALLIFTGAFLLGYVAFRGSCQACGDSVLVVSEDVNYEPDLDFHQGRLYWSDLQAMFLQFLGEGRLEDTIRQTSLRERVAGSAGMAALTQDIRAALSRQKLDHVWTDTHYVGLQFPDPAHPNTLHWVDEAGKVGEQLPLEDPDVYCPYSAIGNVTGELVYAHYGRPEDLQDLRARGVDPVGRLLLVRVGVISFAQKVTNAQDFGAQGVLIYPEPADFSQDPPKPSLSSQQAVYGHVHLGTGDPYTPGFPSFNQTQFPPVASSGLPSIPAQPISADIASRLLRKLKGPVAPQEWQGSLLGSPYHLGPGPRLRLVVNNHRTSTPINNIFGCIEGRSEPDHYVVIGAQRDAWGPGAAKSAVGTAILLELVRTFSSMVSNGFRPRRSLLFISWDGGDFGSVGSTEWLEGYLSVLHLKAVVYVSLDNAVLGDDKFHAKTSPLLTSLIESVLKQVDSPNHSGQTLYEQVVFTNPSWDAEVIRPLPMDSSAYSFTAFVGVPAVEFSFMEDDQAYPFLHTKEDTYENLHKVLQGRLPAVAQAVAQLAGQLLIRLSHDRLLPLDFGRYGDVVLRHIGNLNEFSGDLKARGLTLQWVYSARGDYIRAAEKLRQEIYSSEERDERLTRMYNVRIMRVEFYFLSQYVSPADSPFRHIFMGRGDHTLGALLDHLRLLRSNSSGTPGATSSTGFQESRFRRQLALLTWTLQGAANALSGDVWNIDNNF

Sequence of transferrin (P02787 20-698): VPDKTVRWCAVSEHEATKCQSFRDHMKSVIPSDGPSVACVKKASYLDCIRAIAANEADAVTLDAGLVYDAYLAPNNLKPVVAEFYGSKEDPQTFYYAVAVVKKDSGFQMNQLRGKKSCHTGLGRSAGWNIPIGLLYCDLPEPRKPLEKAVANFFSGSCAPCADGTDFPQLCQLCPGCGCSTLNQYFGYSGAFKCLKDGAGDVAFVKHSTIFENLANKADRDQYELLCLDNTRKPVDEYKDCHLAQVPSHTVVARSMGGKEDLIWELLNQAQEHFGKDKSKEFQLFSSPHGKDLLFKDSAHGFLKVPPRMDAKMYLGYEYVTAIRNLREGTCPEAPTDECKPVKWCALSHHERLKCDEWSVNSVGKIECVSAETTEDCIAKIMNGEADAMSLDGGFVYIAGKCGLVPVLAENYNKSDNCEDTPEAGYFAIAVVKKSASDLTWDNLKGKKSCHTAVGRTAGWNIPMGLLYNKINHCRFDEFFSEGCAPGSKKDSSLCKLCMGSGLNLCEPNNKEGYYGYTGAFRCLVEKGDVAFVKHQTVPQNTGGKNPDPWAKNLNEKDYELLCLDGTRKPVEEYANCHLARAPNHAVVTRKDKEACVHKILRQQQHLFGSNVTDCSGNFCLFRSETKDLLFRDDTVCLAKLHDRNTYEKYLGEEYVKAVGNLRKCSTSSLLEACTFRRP

On to transferrin (from UniProt P02787), for which the dissociation constant Kd is 30 nM.
